Laboratory results from patent US20050233406A1, “Methods for high resolution identification of solvent accessible amide hydrogens in polypeptides and for characterization of polypeptide structure” (priority 2002, published 2005).

Target: T1, RIIα isoform of PKA (regulatory subunit) (Mus musculus, UniProt P12367)
T1 construct: made in house; host or cells: E. coli BL21 (DE3)
Assay: Surface plasmon resonance binding of D-AKAP2 to immobilized RIIα (BIAcore 3000)
Parameters: species or system murine
Settings: 1:1 binding model, average of three replicates, read-out: Kd (dissociation constant)
Experimental: FIG. 2 depicts the binding of D-AKAP2 to the regulatory subunit (RIIα) of PKA as determined using surface plasmon resonance. A total of 450 response units of RIIα were immobilized to a cAMP sensor chip. Serial dilutions (250-2 nM) of D-AKAP2 were injected over the surface. Both the one rate (kon) and the off rate (koff) were fit globally using the concentration series. A 1:1 binding model fits the data well and is illustrated as a bold line.
Binding of RIIa to D-AKAP2 was performed using a BIAcore 3000 (BIAcore). The regulatory subunit of PKA was immobilized to a CM5 chip (BIAcore) as described (Herberg et al., J. Mol. Biol., 298:329-339, 2000). […]
To evaluate the functional properties of this protein, binding of D-AKAP2 to the RIIα isoform of PKA was examined using surface plasmon resonance (Herberg et al., J. Mol. Biol. 298:329-339, 2000). […] D-AKAP2 was injected over the surface at varying concentrations and the affinity determined by fitting the curves to a 1:1 binding model (see FIG. 2).

T1 sequence (P12367 whole entry, canonical isoform): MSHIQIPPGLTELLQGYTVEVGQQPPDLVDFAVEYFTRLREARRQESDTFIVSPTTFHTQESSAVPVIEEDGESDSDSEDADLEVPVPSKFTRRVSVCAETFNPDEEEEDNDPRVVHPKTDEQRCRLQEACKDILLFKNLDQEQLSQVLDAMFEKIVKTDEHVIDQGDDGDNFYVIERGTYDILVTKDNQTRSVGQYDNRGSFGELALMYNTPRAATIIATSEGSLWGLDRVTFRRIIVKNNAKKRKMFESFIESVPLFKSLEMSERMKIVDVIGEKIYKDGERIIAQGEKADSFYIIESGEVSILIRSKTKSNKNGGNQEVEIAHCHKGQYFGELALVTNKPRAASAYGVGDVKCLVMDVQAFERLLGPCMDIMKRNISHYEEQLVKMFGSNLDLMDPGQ

Kd: 2 nM
Substance: AKB domain alone: PKA kinase binding (AKB) domain of D-AKAP2 (residues 336-360), tested alone without the rest of the protein (DPNCFVLAQAVVFSAMEQEHFSEFL; UniProt O88845 336-360, looked up, fragment)
